B1: proBACE: immature, soluble human β-secretase with amino-terminal propeptide, expressed in Sf9 insect cells (protein, listed as Homo sapiens)
chain: TQHGIRLPLRSGLGGAPLGLRLPRETDEEPEEPGRRGSFVEMVDNLRGKSGQGYYVEMTVGSPPQTLNILVDTGSSNFAVGAAPHPFLHRYYQRQLSSTYRDLRKGVYVPYTQGKWEGELGTDLVSIPHGPNVTVRANIAAITESDKFFINGSNWEGILGLAYAEIARPDDSLEPFFDSLVKQTHVPNLFSLQLCGAGFPLNQSEVLASVGGSMIIGGIDHSLYTGSLWYTPIRREWYYEVIIVRVEINGQDLKMDCKEYNYDKSIVDSGTTNLRLPKKVFEAAVKSIKAASSTEKFPDGFWLGEQLVCWQAGTTPWNIFPVISLYLMGEVTNQSFRITILPQQYLRPVEDVATSQDDCYKFAISQSSTGTVMGAVIMEGFYVVFDRARKRIGFAVSACHVHDEFRTAAVEGPFVTLDMEDCGYNIPQTDESTLE
B2: mature BACE: glycosylated, soluble fragment of mature human BACE, autoprocessed from proBACE at pH 4.0 (protein, listed as Homo sapiens)
chain: ETDEEPEEPGRRGSFVEMVDNLRGKSGQGYYVEMTVGSPPQTLNILVDTGSSNFAVGAAPHPFLHRYYQRQLSSTYRDLRKGVYVPYTQGKWEGELGTDLVSIPHGPNVTVRANIAAITESDKFFINGSNWEGILGLAYAEIARPDDSLEPFFDSLVKQTHVPNLFSLQLCGAGFPLNQSEVLASVGGSMIIGGIDHSLYTGSLWYTPIRREWYYEVIIVRVEINGQDLKMDCKEYNYDKSIVDSGTTNLRLPKKVFEAAVKSIKAASSTEKFPDGFWLGEQLVCWQAGTTPWNIFPVISLYLMGEVTNQSFRITILPQQYLRPVEDVATSQDDCYKFAISQSSTGTVMGAVIMEGFYVVFDRARKRIGFAVSACHVHDEFRTAAVEGPFVTLDMEDCGYNIPQTDESTLE
modifications: glycosylated
notes: glycosylated, soluble fragment of mature human BACE, autoprocessed from proBACE at pH 4.0

Target: T1, β-secretase purified from Sf-9 cells (Homo sapiens, UniProt P56817)
T1 construct: made in house; host or cells: Sf9 insect cells, baculovirus (Bac-to-Bac), secreted into the medium
Assay: HPLC assay of β-secretase enzymatic activity with a peptide substrate derived from "Swedish" amyloid protein peptide
Format: biochemical
Settings: proBACE compared with mature BACE
Experimental: To assess the functionality of β-secretase purified from Sf-9 cells, an HPLC assay was developed using a peptide substrate derived from the sequence of “Swedish” amyloid protein peptide (Dreyer et al., (1994) Eur J. Biochem 224: 265-271). In these assays, ProBACE (SEQ ID NO: 2) and mature BACE (SEQ ID NO: 1) were tested.

Row | Molecule | enzymatic activity with substrate Biotin-KSEVNL*DAEFRK-Fluorescein
1 | B1 | equivalent
2 | B2 | equivalent

— patent US20040014194A1, “Beta-secretase crystals and methods for preparing and using the same” (Schering Corporation, priority 2002, published 2004)
